Substitutions are numbered along the chain they refer to. Read-outs that look alike come from different tables or passages of the source. One block for each binder: values may come before it.
Experiments:
[1] = target: T1, CD20 on the cell surface of Raji cells (human, UniProt P11836 1-297); test: FACS binding; Raji cells
T1 chain: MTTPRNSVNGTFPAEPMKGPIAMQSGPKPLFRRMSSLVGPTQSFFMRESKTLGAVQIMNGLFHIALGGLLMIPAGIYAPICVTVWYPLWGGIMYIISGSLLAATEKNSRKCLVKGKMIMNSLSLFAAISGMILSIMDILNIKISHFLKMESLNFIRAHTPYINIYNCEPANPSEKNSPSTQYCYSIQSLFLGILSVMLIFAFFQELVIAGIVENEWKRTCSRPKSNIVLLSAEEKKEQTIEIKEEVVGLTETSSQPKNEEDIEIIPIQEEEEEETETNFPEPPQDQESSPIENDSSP

[2] = target: T1, CD20 on the cell surface of Raji cells; test: FACS binding; Raji cells
[3] = target: CD3 on the cell surface of Jurkat cells (human, UniProt P07766 23-207; P04234 22-171; P09693 23-182); test: FACS binding; Jurkat cells
[4] = target: T2, cynomolgus CD3 on primary cynomolgus T cells (UniProt Q95LI5 22-198); test: FACS binding; cyno T cells
T2 epsilon: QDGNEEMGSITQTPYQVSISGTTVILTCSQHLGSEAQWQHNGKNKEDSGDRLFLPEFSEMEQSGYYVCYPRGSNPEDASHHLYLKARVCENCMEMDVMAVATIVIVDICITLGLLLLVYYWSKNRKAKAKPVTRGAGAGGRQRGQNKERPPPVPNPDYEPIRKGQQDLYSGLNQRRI

[5] = target: T3, cynomolgus CD20 on transiently transfected HEK 293 cells (cynomolgus, UniProt M4ZHZ6 1-297); test: FACS binding; 293F-cynoCD20 cells
T3 chain: T1 chain with S25P, F31L, T51A, A157V, K217R, N226S, I227V, T239V

[6] = target: T2, cynomolgus CD3 on primary cynomolgus T …; test: FACS
[7] = target: T3, cynomolgus CD20 on transiently …; test: FACS

- EC50 [1]: 7.66 nM
B1: FIT021b (antibody)
chain 1: not shown
chain 2: MEFGLSWLFLVAILKGVQCEVQLVESGGGLVQPGRSLRLSCAASGFTFNDYAMHWVRQAPGKGLEWVSTISWNSGSIGYADSVKGRFTISRDNAKKSLYLQMNSLRAEDTALYYCAKDIQYGNYYYGMDVWGQGTTVTVSSASTKGPSVFPLAPSSKSTSGGTAALGCLVKDYFPEPVTVSWNSGALTSGVHTFPAVLQSSGLYSLSSVVTVPSSSLGTQTYICNVNHKPSNTKVDKKVEPKSC
chain 3: MDMRVPAQLLGLLLLWFPGSRCDIQLTQSPSSLSASVGDRVTMSCKSSQSVLYSANHKNYLAWYQQKPGKAPKLLIYWASTRESGVPSRFSGSGSGTDFTFTISSLQPEDIATYYCHQYLSSWTFGGGTKLEIKRTVAAPSVFIFPPSDEQLKSGTASVVCLLNNFYPREAKVQWKVDNALQSGNSQESVTEQDSKDSTYSLSSTLTLSKADYEKHKVYACEVTHQGLSSPVTKSFNRGEC

- EC50 [2]: ~8160 nM
- EC50 [3]: 0.848 nM
- EC50 [4]: 1.15 nM
B2: CD3 mAb (described in US2009/0252683) (antibody, V domains shown)
VH: EVQLLESGGGLVQPGGSLKLSCAASGFTFNTYAMNWVRQAPGKGLEWVARIRSKYNNYATYYADSVKDRFTISRDDSKNTAYLQMNNLKTEDTAVYYCVRHGNFGNSYVSWFAYWGQGTLVTVSS
VL: ELVVTQEPSLTVSPGGTVTLTCRSSTGAVTTSNYANWVQQKPGQAPRGLIGGTNKRAPGTPARFSGSLLGGKAALTLSGVQPEDEAEYYCALWYSNLWVFGGGTKLTVL

- EC50 [2]: 16.8 nM
- EC50 [4]: 3.85 nM
- EC50 [5]: 14.3 nM
B3: FIT018a CD20 (Ofatumumab)/CD3 mAb (bispecific antibody)
chain 1: not shown
chain 2: EVQLVESGGGLVQPGRSLRLSCAASGFTFNDYAMHWVRQAPGKGLEWVSTISWNSGSIGYADSVKGRFTISRDNAKKSLYLQMNSLRAEDTALYYCAKDIQYGNYYYGMDVWGQGTTVTVSSASTKGPSVFPLAPSSKSTSGGTAALGCLVKDYFPEPVTVSWNSGALTSGVHTFPAVLQSSGLYSLSSVVTVPSSSLGTQTYICNVNHKPSNTKVDKKVEPKSC
chain 3: ELVVTQEPSLTVSPGGTVTLTCRSSTGAVTTSNYANWVQQKPGQAPRGLIGGTNKRAPGTPARFSGSLLGGKAALTLSGVQPEDEAEYYCALWYSNLWVFGGGTKLTVLGQPKAAPSVTLFPPSSEELQANKATLVCLISDFYPGAVTVAWKADSSPVKAGVETTTPSKQSNNKYAASSYLSLTPEQWKSHRSYSCQVTHEGSTVEKTVAPTECS

- EC50 [6]: 490 nM
- EC50 [7]: 3.07 nM
B4: anti-CD20 (Ofatumumab) (antibody, V domains shown)
VH: EVQLVESGGGLVQPGRSLRLSCAASGFTFNDYAMHWVRQAPGKGLEWVSTISWNSGSIGYADSVKGRFTISRDNAKKSLYLQMNSLRAEDTALYYCAKDIQYGNYYYGMDVWGQGTTVTVSS
VL: EIVLTQSPATLSLSPGERATLSCRASQSVSSYLAWYQQKPGQAPRLLIYDASNRATGIPARFSGSGSGTDFTLTISSLEPEDFAVYYCQQRSNWPITFGQGTRLEIK
